Results on one molecule are retold here after patent US20260176374A1 (published 2026).

What all share (experiment): BLI
On the technique in general: Biolayer interferometry detects binding as a change in optical thickness at a sensor tip.

Experiment [1] deals with 14949.
For experiment [2], the target named is 19113.
In experiment [3] the target is 19429.

B1: hEPOR (receptor)
chain: APPPNLPDPKFESKAALLAARGPEELLCFTERLEDLVCFWEEAASAGVGPGNYSFSYQLEDEPWKLCRLHQAPTARGAVRFWCSLPTADTSSFVPLELRVTAASGAPRYHRVIHINEVVLLDAPVGLVARLADESGHVVLRWLPPPETPMTSHIRYEVDVSAGNGAGSVQRVEILEGRTECVLSNLRGRTRYTFAVRARMAEPSFGGFWSAWSEPVSLLTPSDLDP
A word on the Kd: it is the equilibrium constant for the complex coming apart. Read a high Kd as a looser complex. With B1, the figures for the dissociation constant Kd in experiment [1], in experiment [2] and in experiment [3] were 2 nM, 2 nM and 0.8 nM, respectively.
